Source: US20170158753A1 (INTEGRATED BIOTHERAPEUTICS, published 2017)

Columns and labels:
EBOV GP[change] [1] = molecular target: T1, EBOV GP[change] (Ebola virus, UniProt Q05320)
MARV GP[change] = MARV GP[change] (Marburg virus, UniProt P35253)
EBOV GP[change] [2] = molecular target: T1, EBOV GP[change]; remark: listed apart in the source

Binder | EC50 (EBOV GP[change] [1]) | Kd (MARV GP[change]) | Kd (EBOV GP[change] [2])
m2E4 (antibody, V domains shown) VH: EVQLQESGPELVKPGASVKISCKASGYSFTGYYMNWVKQSPEKSLEWIGEINPSTGGTTYNQKFKAKATLTVDKSSSTAYMQLKSLTSEDSAVYYCVRYSHYYGSGSWYFDVWGTGTTVTVSS VL: DIQMTQSPASLSASVGETVTITCRASENIYSNLAWYQQKQGKSPQLLVNAATNLADGVPSRFSGSGSGTQFSLKINSLQPEDFGSYYCQHFYVTPYTFGSGTKLEIKR | 1.27 µg/mL | – | –
m5E4 (antibody, V domains shown) VH: EVQLQESGGDLVKPGGSLKLSCAASGFTFSSYTMSWVRQTPERRLEWVATITSGGTYTYYPDSVKGRFTISRDNAKNTLYLQMTSLKSEDTAMYYCTREDGYYFSYWGQGTLVTVSA VL: not shown | – | 30 nM | 12 nM
